This is an account of results in PMC11794430.

The experiment addresses HA-tagged Mincle (macrophage-inducible C-type lectin, CLEC4E) (UniProt Q9ULY5). Put plainly: MST.
Chain of UniProt Q9ULY5 (Q9ULY5 whole entry): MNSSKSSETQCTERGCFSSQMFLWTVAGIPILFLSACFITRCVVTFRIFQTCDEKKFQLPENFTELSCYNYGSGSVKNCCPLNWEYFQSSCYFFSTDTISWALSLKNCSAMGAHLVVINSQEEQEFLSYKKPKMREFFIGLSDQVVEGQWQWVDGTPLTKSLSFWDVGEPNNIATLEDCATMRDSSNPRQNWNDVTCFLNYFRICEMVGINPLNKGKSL

As to “Haptoglobin purified from healthy controls (from UniProt P00738 162-406; P00738 19-160) (natural protein)”, the Kd (in general, a measure of binding affinity in units of concentration) worked out at 22.9 µM.
In turn, “Fucosylated haptoglobin purified from sepsis patients (from UniProt P00738 162-406; P00738 19-160) (natural protein)” yielded a Kd of 5.7 µM.
